The assay addresses GPR87 antigen (Homo sapiens, UniProt Q9BY21). Put plainly: custom ELISA binding analysis of αGPR87 antibody, Ab-CCK and ADC. On the procedure: With the CCE-MMAE peptide successfully synthesized and previous optimization of the antibody loading process with the AFC, it was facile to translate the method to formulating the ADC. Using a similar custom ELISA as before, but with a secondary antibody recognizing mouse antibody, it was contemplated whether the loading of CCE-MMAE, the 50° C. incubation, or even the expression of the peptide tails affected the binding affinity of the antibody. (FIG. 8C) What was found was initially surprising, which was that by adding the peptide tails onto the antibody, the Kd was affected. […] However, if it was taken into consideration the SEC data showing the larger aggregates formed by these antibodies, the results are more consistent. The original analysis was done by using the wt/vol concentration of the antibodies. However, if there are larger aggregates forming such as hexamers of Ab-CCK or hexamers, trimers, and monomers of the ADC, then equivalent wt/vol concentrations will vary by molarity. If it was assumed the Ab-CCK exists as a hexamer and therefore at the same wt/vol concentration as the native Ab is at one sixth the molar concentration, the binding data can be reanalyzed with these adjusted molarities. Similarly, it can be assumed the ADC is forming on average trimers and adjust the molar concentration by one third accordingly. The resulting curves are similar, with the Ab, Ab-CCK, and ADC having Kds of approximately 0.43, 0.46, and 0.41 nM, respectively.
On the technique in general: In an ELISA, binding on a coated surface is turned into a signal by an enzyme label.

The mark [1] stands for this setting: Ab-CCK assumed hexamer, ADC assumed trimer (from SEC), read-out: Kd, reanalyzed with adjusted molarities.
[2] abbreviates: ELISA, analysed by wt/vol concentration, read-out: Kd.

Where two headings read alike, the source gives them in different places.

For orientation: Kd means the constant that tells how readily two partners part at equilibrium.

Chain of GPR87 antigen (Q9BY21 whole entry): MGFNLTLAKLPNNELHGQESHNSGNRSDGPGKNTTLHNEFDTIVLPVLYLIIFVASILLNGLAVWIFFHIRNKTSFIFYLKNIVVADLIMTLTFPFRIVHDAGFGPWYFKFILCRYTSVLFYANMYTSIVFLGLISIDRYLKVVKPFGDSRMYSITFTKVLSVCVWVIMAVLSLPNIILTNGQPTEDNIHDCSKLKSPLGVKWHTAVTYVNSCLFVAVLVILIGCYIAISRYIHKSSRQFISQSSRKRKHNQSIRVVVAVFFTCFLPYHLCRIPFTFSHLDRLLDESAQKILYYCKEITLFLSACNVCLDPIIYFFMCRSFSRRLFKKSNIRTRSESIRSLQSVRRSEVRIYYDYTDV

B1: Ab: native murine αhGPR87 IgG1 antibody (331CL), plasmids from Creative Biolabs (antibody)
heavy: EVQLQQSGPDLVKPGASMKISCKASGYSFTDYTMHWVKQSHGKNFEWIGLINPYNDGTTYNQKFKGKATLTVDKSSSTAYMELLSLTSEDSAVYYCASLDYWGQGTSVTVSSAKTTPPSVYPLAPGSAAQTNSMVTLGCLVKGYFPEPVTVTWNSGSLSSGVHTFPAVLQSDLYTLSSSVTVPSSTWPSETVTCNVAHPASSTKVDKKIVPRDCGCKPCICTVPEVSSVFIFPPKPKDVLTITLTPKVTCVVVDISKDDPEVQFSWFVDDVEVHTAQTQPREEQFNSTFRSVSELPIMHQDWLNGKEFKCRVNSAAFPAPIEKTISKTKGRPKAPQVYTIPPPKEQMAKDKVSLTCMITDFFPEDITVEWQWNGQPAENYKNTQPIMDTDGSYFVYSKLNVQKSNWEAGNTFTCSVLHEGLHNHHTEKSLSHSPGK
light: DVVMTQTPLSLPVSLGDQASISCRSSQSLVHSSGNTYLHWYLQKPGQSPKLLIYKVSNRFSGVPDRFSGSGSGTDFTLKISRVEAEDLGVYFCSQSTHVPYTFGGGTKLEIKRADAAPTVSIFPPSSEQLTSGGASVVCFLNNFYPKDINVKWKIDGSERQNGVLNSWTDQDSKDSTYSMSSTLTLTKDEYERHNSYTCEATHKTSTSPIVKSFNRNEC
Turning to B1, the Kd under setting [1] was about 430 pM and the Kd under setting [2] worked out at 400 pM.

B2: Ab-CCK: αGPR87 antibody 331CL with CCK peptide on the heavy chain C termini via a pentaglycine linker (antibody)
heavy: EVQLQQSGPDLVKPGASMKISCKASGYSFTDYTMHWVKQSHGKNFEWIGLINPYNDGTTYNQKFKGKATLTVDKSSSTAYMELLSLTSEDSAVYYCASLDYWGQGTSVTVSSAKTTPPSVYPLAPGSAAQTNSMVTLGCLVKGYFPEPVTVTWNSGSLSSGVHTFPAVLQSDLYTLSSSVTVPSSTWPSETVTCNVAHPASSTKVDKKIVPRDCGCKPCICTVPEVSSVFIFPPKPKDVLTITLTPKVTCVVVDISKDDPEVQFSWFVDDVEVHTAQTQPREEQFNSTFRSVSELPIMHQDWLNGKEFKCRVNSAAFPAPIEKTISKTKGRPKAPQVYTIPPPKEQMAKDKVSLTCMITDFFPEDITVEWQWNGQPAENYKNTQPIMDTDGSYFVYSKLNVQKSNWEAGNTFTCSVLHEGLHNHHTEKSLSHSPGKGGGGGMKLKKIKSVLKKIKSVLKKIKSVLKKIKSVVGER
light: B1 light
Turning to B2, the Kd is, setting by setting: under setting [1], about 460 pM; under setting [2], 2800 pM.
